Substitutions are numbered along the chain they refer to.
What was measured:
[1] = molecular target: T1, human B7H3 on HEK293F cells (human, UniProt Q5ZPR3 29-534); experiment: flow cytometry, transfected HEK293F cells [Cont.]
T1 construct: whole, on cells
T1 sequence (looked up): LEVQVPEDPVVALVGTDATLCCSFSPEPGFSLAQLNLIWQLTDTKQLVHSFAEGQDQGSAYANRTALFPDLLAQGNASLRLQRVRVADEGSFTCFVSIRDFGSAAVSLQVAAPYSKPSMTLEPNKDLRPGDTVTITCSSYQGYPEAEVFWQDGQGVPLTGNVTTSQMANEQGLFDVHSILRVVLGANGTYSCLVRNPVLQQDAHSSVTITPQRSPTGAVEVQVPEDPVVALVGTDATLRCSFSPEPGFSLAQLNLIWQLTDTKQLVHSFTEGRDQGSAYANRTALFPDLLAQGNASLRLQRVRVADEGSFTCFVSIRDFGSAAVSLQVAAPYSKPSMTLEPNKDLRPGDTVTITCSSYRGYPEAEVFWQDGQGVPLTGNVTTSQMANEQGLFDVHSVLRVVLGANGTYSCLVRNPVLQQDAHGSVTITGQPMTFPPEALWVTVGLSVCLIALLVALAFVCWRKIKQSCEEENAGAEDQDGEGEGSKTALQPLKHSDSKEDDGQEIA
Procedure: (§1) Antibody selectivity was next examined. Human CTLA4, PD1, LAG3, Tim3, B7H3, CD95, TNFR1, OX40, CD40, PD-L1, BLTA, VISTA, PDL2, ICOS and B7H4 were transiently overexpressed on the surface of HEK293F cells. Transfected cells were washed in pre-chilled 1×PBSA buffer (1.76 mM KH2PO4, 10.14 mM Na2HPO4.12H2O, 2.68 mM KCl, 136.89 mM NaCl and 1% BSA), then incubated with 100 nM test antibodies for 1 hour on ice. Cells were washed once with staining buffer, and Alexa Fluor® 647 conjugated mouse anti-human FC antibodies were added and incubated for 30 minutes on ice, protected from light. Samples were washed once with staining buffer prior to analysis by flow cytometry.

[2] = molecular target: T2, full-length human CTLA4 expressed on cells (human, UniProt P16410 36-223); experiment: flow cytometry, transfected HEK293F cells, antibody concentration not given
T2 construct: whole, on cells; also called HEK293F/hCTLA-4 cells; HEK293F/hCTLA4 cells
T2 sequence (looked up): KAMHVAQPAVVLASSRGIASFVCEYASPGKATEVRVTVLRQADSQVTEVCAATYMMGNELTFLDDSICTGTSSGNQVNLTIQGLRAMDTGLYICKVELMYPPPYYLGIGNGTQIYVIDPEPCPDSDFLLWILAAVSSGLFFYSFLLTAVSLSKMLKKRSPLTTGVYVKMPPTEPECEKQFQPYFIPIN
Procedure: The affinities of the antibodies were also assessed against human and mouse CTLA4 transiently expressed on the surface of HEK293F cells (FIG. 2). Briefly, HEK293F cells were transfected with a plasmid expressing full-length human, monkey or mouse CTLA4 from a bicistronic IRES vector also encoding EGFP, and EGFP expression was used to identify the transfected cells. After 48 hours, the mammalian cell suspension (2×10⁵/well) was transferred to an Eppendorf tube, centrifuged, the supernatant was discarded, the cells were resuspended with 1 mL PBSA (to a density is 4×10⁶ cells/mL), and added to a 96 well plate. […] The cells were then washed once prior to analysis by flow cytometry (Beckman® CytoFlex).

[3] = molecular target: T3, human PD1 on HEK293F cells (human, UniProt Q15116 25-288); experiment: flow cytometry, transfected HEK293F cells, 100 nM antibody
T3 construct: whole, on cells
T3 sequence (Q15116 25-288): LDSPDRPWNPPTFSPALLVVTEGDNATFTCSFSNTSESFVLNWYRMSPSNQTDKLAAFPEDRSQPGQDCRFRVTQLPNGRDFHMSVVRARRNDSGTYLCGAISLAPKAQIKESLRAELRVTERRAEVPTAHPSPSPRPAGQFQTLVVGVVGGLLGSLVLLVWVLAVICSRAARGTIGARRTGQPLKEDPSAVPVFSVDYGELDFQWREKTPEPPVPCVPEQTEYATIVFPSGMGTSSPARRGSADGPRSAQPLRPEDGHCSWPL
Procedure: as §1

[4] = molecular target: T4, human OX40 on HEK293F cells (human, UniProt P43489 29-277); experiment: as above
T4 construct: whole, on cells
T4 sequence (looked up): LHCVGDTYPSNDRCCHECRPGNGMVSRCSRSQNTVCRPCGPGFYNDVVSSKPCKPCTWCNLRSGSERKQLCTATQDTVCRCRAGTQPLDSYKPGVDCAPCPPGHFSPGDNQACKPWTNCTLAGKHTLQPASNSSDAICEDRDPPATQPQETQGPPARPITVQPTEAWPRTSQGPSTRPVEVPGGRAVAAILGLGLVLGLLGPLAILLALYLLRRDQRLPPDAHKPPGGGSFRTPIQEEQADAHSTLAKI
Procedure: as §1

[5] = molecular target: T2, full-length human CTLA4 expressed on …; experiment: as above
Procedure: as §1

[6] = molecular target: T5, human CD95 on HEK293F cells (human, UniProt P25445 26-335); experiment: as above
T5 construct: whole, on cells
T5 sequence (looked up): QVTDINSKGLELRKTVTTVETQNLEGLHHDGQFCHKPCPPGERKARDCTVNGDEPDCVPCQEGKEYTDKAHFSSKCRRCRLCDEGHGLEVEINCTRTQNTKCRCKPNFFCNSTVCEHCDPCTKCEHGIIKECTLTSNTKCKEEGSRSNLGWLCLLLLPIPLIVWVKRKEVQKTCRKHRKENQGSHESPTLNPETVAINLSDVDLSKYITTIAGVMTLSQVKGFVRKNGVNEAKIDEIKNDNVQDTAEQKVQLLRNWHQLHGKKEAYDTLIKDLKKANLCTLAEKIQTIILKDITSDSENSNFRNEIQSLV
Procedure: as §1

[7] = molecular target: T6, human LAG3 on HEK293F cells (human, UniProt P18627 23-525); experiment: as above
T6 construct: whole, on cells
T6 sequence (looked up): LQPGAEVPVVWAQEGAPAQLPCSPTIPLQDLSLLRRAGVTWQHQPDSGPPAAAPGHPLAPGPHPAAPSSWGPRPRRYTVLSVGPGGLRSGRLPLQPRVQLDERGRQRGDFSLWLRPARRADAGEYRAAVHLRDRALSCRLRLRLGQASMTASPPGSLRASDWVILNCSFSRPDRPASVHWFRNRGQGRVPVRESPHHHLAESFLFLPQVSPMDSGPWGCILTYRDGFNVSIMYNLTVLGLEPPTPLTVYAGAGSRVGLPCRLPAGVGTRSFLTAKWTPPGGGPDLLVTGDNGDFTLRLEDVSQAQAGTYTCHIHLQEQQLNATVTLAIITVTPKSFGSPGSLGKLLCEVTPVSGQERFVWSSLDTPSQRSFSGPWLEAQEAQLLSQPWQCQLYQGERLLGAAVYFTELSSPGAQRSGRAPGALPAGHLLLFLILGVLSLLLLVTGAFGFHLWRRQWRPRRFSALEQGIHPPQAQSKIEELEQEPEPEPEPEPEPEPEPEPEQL
Procedure: as §1

B1: TY21687 (antibody, V domains shown)
VH: EVQLVESGGGLVQPGGSLRLSCAASGFTFSGYAIHWVRQAPGKGLEWIGIISPSGGGTKYAQKFQGRVTISRDNSKNTLYLQLNSLRAEDTAVYYCARHPFAYWGQGTLVTVSS
VL: DIQLTQSPSSLSASVGDRVTITCRASQSVDFYGISFLDWYQQKPGKAPKLLIYDASNRATGIPSRFSGSGSGTDFTLTISSLQPEDFATYYCQQYVSSPPEYTFGQGTKVEIK
notes: human IgG1 (hIgG1) from Fab hit B15700
- binding result [1]: no binding (tested: 100 nM)

B2: TY21585 (antibody, V domains shown)
VH: EVQLVESGGGLVQPGGSLRLSCAASGFTFSDYAIHWVRQAPGKGLEWIGIISPSSGSTNYAQKFQGRVTISRDNSKNTLYLQLNSLRAEDTAVYYCARDIHSGSSGYYYGFDVWGQGTLVTVSS
VL: B1 VL with Q27E, Y32F, D38A, Q94H, V96T, E101V
notes: human IgG1 (hIgG1) from Fab hit B15709
- % of cells in upper right quadrant (Q2) [2]: 25.7%
- binding result [1]: no binding (tested: 100 nM)
- % of cells in upper right quadrant (Q2) [3]: 1.33%
- % of cells in upper right quadrant (Q2) [4]: 0.43
- Mean [4]: 10500
- % of cells in upper right quadrant (Q2) [5]: 30.4%
- % of cells in upper right quadrant (Q2) [6]: 0.23
- Mean [6]: 6720
- % of cells in upper right quadrant (Q2) [7]: 0.66%
